Assay [1] deals with Full length UFC1, residues 1–167 (UniProt Q9Y3C8). As to the kind of experiment: ITC; VP-ITC, 25 °C; UBA5 peptides (~400 µM) titrated into 20–25 µM binding partner; 25 mM HEPES pH 7.5, 100 mM NaCl; one-site model; a single profile for each interaction. Background: ITC needs no label: the signal is the heat of the interaction.
Assay [2] has the same target. Described as above. The source holds these as a separate data set.

Results on 1 molecule are retold here after PMC8304084, “A Concerted Action of UBA5 C-Terminal Unstructured Regions Is Important for Transfer of Activated UFM1 to UFC1” (International Journal of Molecular Sciences, 2021).

Read-outs that look alike come from different tables or passages of the source.

In assay [1], GAMEDSGESLEDLMAKMKNM [UBA5 C-terminal region R3, residues 388–404] registered a Ka of 30000 M⁻¹, a dissociation constant (Kd) of 10 µM, a dH of -4.99 kcal/mol and a stoichiometry N of 0.95. Further, the Kd in assay [2] is above 11 µM.

In general, Kd refers to the constant that tells how readily two partners part at equilibrium. Read a low Kd as higher affinity. For orientation: stoichiometry N means a count of units in the complex or per binding partner.
